Measurements from patent US20140120095A1 (Boehringer Ingelheim, published 2014).
Where a chain is given by its changes, count along the chain named.

B1: DLLBII83G01 (VHH)
VHH: EVQLVESGGGLVQAGGSLRLSCAASGRTFSNYIMGWFRQAPGKEREFVAGISRYADYTGYADSVKGRFTISRDNVKNTVYLRMNSLKPDDTAVYYCAANEGYCSGYGCYEDSGQYDYWGQGTQVTVSS
B2: DLLBII95F02 (VHH)
VHH: EVQLVESGGGSVQAGGSLRLSCAASGRTFSSYAMGWFRQAPGKEREFVAAINWSGGYTYYADSVRGRFTISRDNAKNTVYLQMNSLKPEDTAVYYCAAPAPGSSGYEYDYWGQGTQVTVSS
B3: DLLBII104C04 (VHH)
VHH: EVQLVESGGGLVQAGGSLRLSCAAAGSTFSSYVMGWYRQAPGKQRELVAHISTRGITYYADSVKGRFTISRDNAKNTMYLQMNSLKPEDTAVYYCNTRRNFLSNYWGQGTQVTVSS
B4: DLLBII58A11 (VHH)
VHH: EVQLVESGGGLVQAGGSLRLSCTTSERTVSRYSMGWFRQAPGKEREAVATISWSGDSTYYADSVKGRFTISRDNTKNTLYLQIDSLKPEDTAVYYCVAKPNLKYGSYWPPRGYDYWGQGTQVTVSS
B5: DLLBII129A03 (VHH, not shown: small tags and cut ends)
VHH: EVQLVESGGGLVQAGGSLRLSCAASGRTFSSYAMAWFRQAPGKEREYVAAIRWSGGTAYYADSVQGRFTISRDNAKNTVYLQMNSLRPEDTAVYYCANRAPDTRLRPYLYDYWGQGTQVTVSS
B6: DLLBII130F06 (VHH, not shown: small tags and cut ends)
VHH: B5 VHH with F37Y, R87K, R106A, L109E
B7: DLLBII130B03 (VHH, not shown: small tags and cut ends)
VHH: B5 VHH with F37Y, R87K, R106A
B8: DLLBII129H07 (VHH, not shown: small tags and cut ends)
VHH: B5 VHH with F37Y, R87K, R106E, L109E
B9: DLLBII134D10 (VHH, not shown: small tags and cut ends)
VHH: EVQLVESGGGLVQPGGSLRLSCAASGFTIGSYDMSWVRRSPGKGPEWVSSINSGGGSTYYTDYVKGRFTISRDNAKNTLYLQMNSLKPEDTAVYYCAADRYIWARQGEYWGAYAYDYWGQGTQVTVSS
B10: DLLBII019 (VHH, not shown: small tags and cut ends)
VHH: B9 VHH with I29F, T61A, K87R, A114E, Q123L
B11: DLLBII022 (VHH, not shown: small tags and cut ends)
VHH: B9 VHH with I29F, R39Q, S40A, T61A, K87R, A114E, Q123L
B12: DLLBII020 (VHH, not shown: small tags and cut ends)
VHH: B9 VHH with I29F, R39Q, T61A, K87R, A114E, Q123L
B13: DLLBII021 (VHH, not shown: small tags and cut ends)
VHH: B9 VHH with I29F, S40A, T61A, K87R, A114E, Q123L
B14: DLLBII133A05 (VHH)
VHH: B9 VHH with I29F, S50A, Y59F, A114Q
B15: VEGFBII112D11 (VHH)
VHH: EVQLVESGGGLVQPGGSLRLSCEASGRTFSSYSMGWFRQAPGKEREFVVAISKGGYKYDSVSLEGRFTISRDNAKNTVYLQINSLRPEDTAVYYCASSRAYGSSRLRLADTYEYWGQGTLVTVSS
B16: VEGFBII118E10 (VHH)
VHH: B15 VHH with P14T, G16D, A24V, P41Q, S60A, R71K, R86K, L120Q
B17: VEGFBII113E03 (VHH)
VHH: B15 VHH with P14T, G16D, A24V, P41Q, R71K, I82M
B18: VEGFBII114D03 (VHH)
VHH: B15 VHH with P14T, G16D, E23A, A24V, P41Q, R71K
B19: VEGFBII114C09 (VHH)
VHH: B15 VHH with G16D, A24V, R71K
B20: VEGFBII114D02 (VHH)
VHH: B15 VHH with P14T, A24V
B21: VEGFBII113A08 (VHH)
VHH: B15 VHH with P14T, A24V, R71K

Molecular target: T1, mouse DLL4 overexpressed on cells (mouse, UniProt Q9JI71 27-686)
T1 construct: whole, on cells; also called CHO-mDLL4; CHO-mDII4
Assay: FMAT, labelled hNotch1-Fc on CHO-mDLL4, periplasmic extract
Text: (§1) All calculations are based on the FL1_total signal which comprises the average of the fluorescence per well times the number of counts per well.

T1 sequence (Q9JI71 27-686): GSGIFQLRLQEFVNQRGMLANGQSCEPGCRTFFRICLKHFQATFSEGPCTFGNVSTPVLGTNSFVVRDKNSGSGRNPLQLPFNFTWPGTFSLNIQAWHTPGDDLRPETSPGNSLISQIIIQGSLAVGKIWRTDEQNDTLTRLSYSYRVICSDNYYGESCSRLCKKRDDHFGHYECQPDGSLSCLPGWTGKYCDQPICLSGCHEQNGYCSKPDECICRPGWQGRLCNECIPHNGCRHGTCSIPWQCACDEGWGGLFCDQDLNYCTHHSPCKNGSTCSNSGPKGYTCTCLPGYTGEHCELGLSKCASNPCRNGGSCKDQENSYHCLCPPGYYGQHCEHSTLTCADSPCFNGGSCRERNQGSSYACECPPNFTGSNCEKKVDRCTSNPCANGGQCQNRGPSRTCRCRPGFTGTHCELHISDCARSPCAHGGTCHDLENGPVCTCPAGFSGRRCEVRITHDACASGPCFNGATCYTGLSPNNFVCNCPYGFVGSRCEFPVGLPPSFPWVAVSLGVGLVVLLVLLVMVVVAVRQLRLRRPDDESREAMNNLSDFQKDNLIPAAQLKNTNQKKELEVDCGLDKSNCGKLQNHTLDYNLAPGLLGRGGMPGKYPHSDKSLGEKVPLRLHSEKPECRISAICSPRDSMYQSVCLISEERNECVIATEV

Binder | % inh
B1 | 93%
B2 | 71%
B3 | 83%
B4 | 73%

Molecular target: T2, recombinant human DLL4 (C-terminally His-tagged extracellular domain, R&D Systems) (human, UniProt Q9NR61 25-522, biotinylated in the competition ELISA)
T2 construct: also called rhDLL4; hDLL4
Assay: SPR (Biacore); summary table

Binder | Kd
B5 | 0.5 nM
B6 | 0.4 nM
B7 | 0.3 nM
B8 | 0.5 nM

Molecular target: T3, human DLL4 expressed on cells (CHO-hDLL4; HEK293-hDLL4) (human, UniProt Q9NR61 27-685)
Assay: cell-based or functional assay

Binder | IC50, DLL4-mediated reporter assay
B9 | 18 nM

Molecular target: T4, recombinant mouse DLL4 (C-terminally His-tagged extracellular domain, R&D Systems) (mouse, UniProt Q9JI71 27-532)
T4 construct: extracellular domain; also called rmDLL4; mDLL4
Assay: ProteOn off-rate screen, periplasmic extract, coated mouse DLL4
Protocol: (§2) In a first cycle, amino acid substitutions are introduced randomly in both framework (FW) and complementary determining regions (CDR) using the error-prone PCR method. […] After a polish step, PCR products are inserted via unique restriction sites into a vector designed to facilitate phage display of the VHH library. Consecutive rounds of in-solution selections are performed using decreasing concentrations of biotinylated recombinant human DLL4 (biot-rhDLL4) and trypsin elutions. Affinity-driven selections in a third round using cold rhDLL4 (at least 100× excess over biot-rhDLL4) are also performed. No selections on murine DLL4 are included as (conservation of) cross-reactivity is assessed at the screening level. Individual mutants are produced as recombinant protein using an expression vector derived from pUC119, which contains the LacZ promoter, a resistance gene for ampicillin, a multiple cloning site and an ompA leader sequence (pAX50). E. coliTG1 cells are transformed with the expression vector library and plated on agar plates (LB+Amp+2% glucose). Single colonies are picked from the agar plates and grown in 1 mL 96-deep-well plates. VHH expression is induced by adding IPTG (1 mM). Periplasmic extracts (in a volume of ˜80 uL) are prepared according to standard methods and screened for binding to recombinant human and mouse DII4 in a ProteOn (BioRad, Hercules, Calif., USA) off-rate assay. In brief, a GLC ProteOn Sensor chip is coated with recombinant human DII4 on the “ligand channels” L2 and L4 (with L1/L3 as reference channel), while “ligand channels” […] is coated with mouse DII4. Periplasmic extract of affinity-matured clones is diluted 1/10 and injected across the “analyte channels” A1-A6. An average off-rate is calculated of the wild type clones present in the plate and served as a reference to calculate off-rate improvements.

T4 sequence (Q9JI71 27-532): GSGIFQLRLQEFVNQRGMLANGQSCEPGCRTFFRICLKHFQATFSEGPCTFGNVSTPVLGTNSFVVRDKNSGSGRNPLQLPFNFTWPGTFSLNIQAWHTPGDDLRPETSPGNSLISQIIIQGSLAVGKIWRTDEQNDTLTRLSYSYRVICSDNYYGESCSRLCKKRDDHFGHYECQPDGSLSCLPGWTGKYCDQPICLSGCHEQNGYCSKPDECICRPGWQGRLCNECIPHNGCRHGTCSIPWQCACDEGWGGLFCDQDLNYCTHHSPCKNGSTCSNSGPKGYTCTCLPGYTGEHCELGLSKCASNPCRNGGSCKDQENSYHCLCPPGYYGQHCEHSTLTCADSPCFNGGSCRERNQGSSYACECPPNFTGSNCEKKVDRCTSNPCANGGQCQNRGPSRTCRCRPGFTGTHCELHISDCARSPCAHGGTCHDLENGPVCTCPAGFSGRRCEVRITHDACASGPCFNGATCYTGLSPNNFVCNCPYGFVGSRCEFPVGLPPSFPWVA

Binder | fold (off-rate vs DLLBII101G08) | koff
B5 | 18 fold | 0.00038 s⁻¹
B6 | 19 fold | 0.00026 s⁻¹
B7 | 20 fold | 0.00024 s⁻¹
B8 | 27 fold | 0.00025 s⁻¹

Molecular target: T3, human DLL4 expressed on cells …
Assay: competition FMAT, labelled hNotch1-Fc on CHO-hDLL4 cells

Binder | IC50
B10 | 3 nM
B11 | 95.4 nM
B12 | 44.6 nM
B13 | 2.1 nM

Molecular target: T2, recombinant human DLL4 (C-terminally …)
Assay: competition ELISA hDLL4/hNotch1-Fc; summary table

Binder | IC50
B9 | 1.3 nM
B14 | 2.1 nM
B5 | 1.8 nM
B6 | 1.3 nM
B7 | 1.5 nM
B8 | 1 nM

Molecular target: T5, human DLL4 overexpressed on cells (human, UniProt Q9NR61 27-685)
T5 construct: full length human DLL4 on CHO or HEK293 cells; also called CHO-hDLL4; CHO-hDII4
Assay: FMAT, labelled hNotch1-Fc on CHO-hDLL4, periplasmic extract
Text: as §1

Binder | % inh
B1 | 87%
B2 | 81%
B3 | 87%
B4 | 95%

Molecular target: T2, recombinant human DLL4 (C-terminally …)
Assay: ProteOn off-rate screen, periplasmic extract, coated human DLL4
Protocol: as §2

Binder | fold (off-rate vs DLLBII101G08) | koff
B5 | 19 fold | 0.00012 s⁻¹
B6 | 27 fold | 6.5e-05 s⁻¹
B7 | 27 fold | 6.7e-05 s⁻¹
B8 | 30 fold | 7.4e-05 s⁻¹

Molecular target: T6, recombinant human VEGF165 (human, UniProt P15692-4 27-191, biotinylated in the competition assays)
T6 construct: Bought protein; also called hVEGF165; rhVEGF165
Assay: AlphaScreen, hVEGF165/hVEGFR2-Fc competition
Parameters: % inhibition: concentration or dose not given beside the values

T6 sequence (P15692 other isoform, or with tags, fused parts or gaps): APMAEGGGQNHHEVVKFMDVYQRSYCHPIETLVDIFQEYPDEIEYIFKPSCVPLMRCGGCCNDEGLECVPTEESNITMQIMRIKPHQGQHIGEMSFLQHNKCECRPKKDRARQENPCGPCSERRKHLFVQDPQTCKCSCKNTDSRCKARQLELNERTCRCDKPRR

Binder | % inhibition | IC50
B15 | 100% | 0.221 nM
B16 | 100% | 0.189 nM
B17 | 100% | 0.29 nM
B18 | 100% | 0.227 nM
B19 | 100% | 0.215 nM
B20 | 100% | 0.199 nM
B21 | 100% | 0.253 nM

Molecular target: T7, recombinant human DLL4 (human, UniProt Q9NR61 25-522)
T7 construct: also called rhDLL4; hDLL4
Assay: Biacore off-rate, periplasmic extract

Binder | koff
B1 | 0.00041 s⁻¹
B2 | 0.00067 s⁻¹
B3 | 0.001 s⁻¹
B4 | 0.0016 s⁻¹

Molecular target: T2, recombinant human DLL4 (C-terminally …)
Assay: SPR (Biacore), recombinant human DLL4
Protocol: (§3) Kinetic analysis to determine the affinity of the DII4-VHH interaction is performed by Surface Plasmon Resonance (SPR) on a Biacore T100 instrument. […] Purified VHHs or Fab fragment are injected for 2 minutes at different concentrations (between 10 and 300 nM) and allowed to dissociate for 20 min at a flow rate of 45 μl/min. Between sample injections, the surfaces are regenerated with 10 mM glycine pH1.5 and 100 mM HCl. HBS-N (Hepes buffer pH7.4) is used as running buffer. If possible, data are evaluated by fitting a 1:1 interaction model (Langmuir binding) onto the binding curves. The affinity constant KD is calculated from resulting association and dissociation rate constants (kₐ) and […].

Binder | Kd | koff | kon
B10 | 1.3 nM | 0.00074 s⁻¹ | 570000 M⁻¹ s⁻¹
B11 | 46 nM | 0.022 s⁻¹ | 470000 M⁻¹ s⁻¹
B12 | 27 nM | 0.0093 s⁻¹ | 340000 M⁻¹ s⁻¹
B13 | 1 nM | 0.00057 s⁻¹ | 560000 M⁻¹ s⁻¹

Molecular target: T2, recombinant human DLL4 (C-terminally …)
Assay: competition ELISA, biotinylated hDLL4 to coated hNotch1-Fc

Binder | IC50
B9 | 1.3 nM
B14 | 2.1 nM
B5 | 1.8 nM
B6 | 1.3 nM
B7 | 1.5 nM
B8 | 1 nM

Molecular target: T2, recombinant human DLL4 (C-terminally …)
Assay: SPR (Biacore), rhDLL4
Protocol: as §3

Binder | Kd | koff | kon
B5 | 0.5 nM | 0.00012 s⁻¹ | 210000 M⁻¹ s⁻¹
B6 | 0.4 nM | 8e-05 s⁻¹ | 200000 M⁻¹ s⁻¹
B7 | 0.3 nM | 6.8e-05 s⁻¹ | 220000 M⁻¹ s⁻¹
B8 | 0.5 nM | 7.3e-05 s⁻¹ | 160000 M⁻¹ s⁻¹
